According to US9345662B2, “Degradable hydrogel compositions and methods” (RUTGERS, THE STATE UNIVERSITY OF NEW JERSEY, priority 2008, dated 2016):

Experiment: In vitro release (cumulative cleavage) from PEG-Glu-Lys conjugates in PBS (fluorescamine assay)
Format: physicochemical
Method: PEG-Glu(NH2)-(α)Lys(Z)OMe conjugate (15 mg) was dissolved in PBS (15 ml) and incubated at 37° C. Aliquots (50 μL) were taken at regular time intervals and the sample aliquots were dried using a CentriVap (Labconco Corporation, Kansas City, Mo.). The cumulative cleavage (%) of Lys(Z)OMe from PEG-Glu(NH2)-(α)Lys(Z)OMe conjugate was measured using fluorescamine assay^24.
PEG-Glu(NH2)-(ε)Lys(Z)OMe conjugates (15 mg) was dissolved in PBS (15 ml) and incubated at […] Aliquots (50 μL) were taken at regular time intervals and the sample aliquots were dried using a CentriVap (Labconco Corporation, Kansas City, Mo.). The cumulative cleavage (%) of Z-LysOMe from PEG-Glu(NH2)-(ε)Lys(Z)OMe conjugate was measured using fluorescamine assay^24.

Substance	Z-LysOMe released from conjugate (7° C., at the time under E15) [%]	time of Z-LysOMe release from conjugate (7° C., extent under E14) [h]	release (cumulative cleavage) of Lys(Z)OMe from conjugate (37° C., at the time under E13) [%]	time of Lys(Z)OMe release from conjugate (37° C., extent under E12) [h]
PEG-Glu(NH2)-(ε)Lys(Z)OMe [PEG-Glu(NH2)-(ε)Lys(Z)OMe conjugate]	99	~29		
PEG-Glu(NH2)-(α)Lys(Z)OMe [PEG-Glu(NH2)-(α)Lys(Z)OMe conjugate]			~99	490
